From patent US20100216659A1

What was measured:
[1] = target: gp120 pre-complexed with sCD4 (HIV-1); assay: yeast display flow cytometry, gp120 titrated in the presence of sCD4, MFI of antigen binding
[2] = target: monomeric gp120 (HIV-1) (HIV-1); assay: yeast display flow cytometry, gp120 titrated in the absence of sCD4, MFI of antigen binding

“scFv X5 displayed on yeast (X5-pPNLS in EBY100)” gave a Kd [1] of 1.1 nM and a Kd [2] of 14.5 nM.
